This series in a line: soluble on expression in E. coli; label from the status in PepcDB or PDB records.
With “MALALSLSACSPPLRRTRRAGFRTSCSIFANPAQRAKRKLLELISEEDRGLRTQKDPKKRDEIVNAIESMTVIGRSSITTDDSLSATWRLLWTTEKEQLFIIEKAGLFGTTAGDVLQVIDVNKRILNNVITFPPDGVFFVRSDIDIASPQRVNFRFNSAVLRGKNWELPLPPFGKGWFENVYMDGEIRVAKDIRGDYLIVDRAPYNWTESFV”, the “soluble on expression in E. coli” value was “soluble”.

For the sequence “GTEDLYFQSHMTIAVTGSIATDHLMRFPGRFSEQLLPEHLHKVSLSFLVDDLVMHRGGVAGNMAFAIGVLGGEVALVGAAGADFADYRDWLKARGVNCDHVLISETAHTARFTCTTDVDMAQIASFYPGAMSEARNIKLADVVSAIGKPELVIIGANDPEAMFLHTEECRKLGLAFAADPSQQLARLSGEEIRRLVNGAAYLFTNDYEWDLLLSKTGWSEADVMAQIDLRVTTLGPKGVDLVEPDGTTIHVGVVPETSQTDPTGVGDAFRAGFLTGRSAGLGLERSAQLGSLVAVLVLESTGTQEWQWDYEAAASRLAGAYGEHAAAEIVAVLA”, the “soluble on expression in E. coli” value is listed as “soluble”.

Turning to “GDFAYTVGFNMSKNWNKVTNLGANDPIIESPWIKKVGYAIGTFYGYRSDGLLTQEDIDTGNYITDGLVPQAGDIKYVDLDGDGKLTDKDRTYIGCDVPDITYGVNLNLRYKGFELSMFGQGVTGTKVNFSMENAWAFSDYASPRKYHLKRWTVDNPNPNAAYPRIYPRTSKHSTYNQYFSDYWLFNADYFRIKNITFGYSFQKPVLQKLSLEALKLYVAAENPFTIRADHRMEDFDPETASGRGVNTRGTSSIAFGVNLTF”, the “soluble on expression in E. coli” value is recorded as “not soluble”.

Take “MGSDKIHHHHHHMNVSIRLPRFEFDDKILEQGAEISRRLNQLRMEKFPPNATKTLRTFSMAEVAHYLGVSQNNLKRLHLEGKGPLPDQSPSGRRSYTATQMLELRQFLDQHGRTEVKKYVPHRKLGDKLQVVAVVNFKGGSGKTTTAAHLAQHLALTGHRVLAIDLDPQASLSALHGFQPELDRNLSLYEAIRYDDERRSIADVIIPTNFPGLDIIPANLELQEYEYDTPLAMQDKTSSAGRQFFTRMAKALSEVDDRYDVVVVDCPPQLGYLTLTAMSAATSVLITVHPQMLDLMSMSQFLLMLGGILKTIKAAGAAIELDWFRYLITRYEPTDIPQAQMVGFMQSMLAGQILENPMLKSTAISDAGLTKQTLYEVEKSAFTRSTYDRALESLDAVNAEIVTLIHRAWGRS”: the “soluble on expression in E. coli” value is “not soluble”.

On to “MDAKVAFSPHSDANGRLDEIGADIDTAQSSVLFSLAFLGQMTRGAIGPALGRALERPEVHVMGIADAEVRAGNLGLNVLTPDNRRRVVRAAALTGNVPPPFLTEPSGLAGVDGNQRGTRMHHKFVVLDFDKPTARVYLGSYNFSNPADDENGENLVVVRDRTVATSYMIEALRMYDHYVFRVASEASDGPARPLEHHHHHH”, for which the “soluble on expression in E. coli” value is “not soluble”.

Turning to “MKPKAITFDFWGTLFTEGEAFLEKVMPARYEILLDALSEAGHPVDEAEVREAYRQASLAFEEAWKAGEHMPVYERVARIFALLGAPHDPGLIALTARRLEESSLLAPLKPLPGVEVLKDLAKKYPLAIVSDTGMTPGRLLREHLKRQGLDVFQAFSFSDETGFVKPKPEAFRVALEALGVAPEEALHVGDLPQTDIKGAFGTGYPWAVQYVGLREVNGEVRPTAKVKDHRELLSLLT”, the “soluble on expression in E. coli” value is recorded as “soluble”.

On to “MEWIERLNKAMSYIEEHITEEIDFEQTAKIACCSAYHFQRMFTYMAGIPLSEYIRRRRMTLAAVELQSSDEKVIDIALKYGYASPTAFNRAFQSVQGITPSAAKKKGTPVKSYPPLSFAITIKGVEGMNYRIEEKEAFRIIGIAQSMSKNLEENFAVVPQMWGKAAADGTIQKLASMIEGQPAGLLGVSICNNEEDWRYFIAVSGTRPAEAPFEEYRVPASTWAVFPGTGTNLSVQDLERRIVTEWLPTSGYEYGSAPDIEVYISPNPENAKYEVWIPVVKKQ”, for which the “soluble on expression in E. coli” value is “not soluble”.

For the sequence “MAEKSLITQETVGMTDEGLPPVLQGRNNSTQQVSFLRARVKCTDQGLITKIGVLPRGAFIKSIKIYAMTDFEDVTATFGKEPHGNDYGDVGLTQSTDSNVYIPMEERDVPLEVENTIYMTRDKKSSKGDVEVIVEFYTNR”, the “soluble on expression in E. coli” value is “not soluble”.

For the sequence “MITLWGRNNSTNVKKVLWTLEELELPYDQILAGGKFGVNQDADYLAMNPNGLVPLLKDDETDLLLWESNAIVRYLAAQYGQNRLWVDNPARRAEGEKWMDWANQTLSPAHRVILMGLVRTPPEKRDQAAIEAGIEKCDSLFALLDDALAHQPWFSGDNFGTGDIAIAPFVYNLLNVGLKWTPRPNLERWYQQLTERPAFRKVVMIPVT”, the “soluble on expression in E. coli” value is listed as “not soluble”.

Turning to “MFRTQSRYLVRSILANHCVLPSTRMAVSPILNQSIKFYSSKDNATDKSQEKEQPKSILNDDMLARAGFEDVDPKEETSNSEEQATKQTGRKRKRAQTSKDLQRERYANMFYLSALIFGVAGVGYMSRDWDSEKEQEEMDGKNVENGYTPKLMYERLSKRLGSLFTFFSEPAFENLLPPPPPEQYRRPLTLVVTLDDFLIHSNWDTQHGWRTGKRPGLDYFLGYLSQYYEIVVFSSNSQIYSDKTVNKLDPYHAYISYALFREACRYKDGKLIKDLSLLNRDLGKTVMIDVDEDSAALQPENSIIVKKWEGQPDEYLISLIPFLEYLATQPVKDVRPILNSYKDKSNIVAEFAERENKLREQWRKDHGGNNGKPNAGNFIAKLLGIPVPEPKMPLDIIREHGQLQYEHFQKYLQENAHKFLEEEQKLKDEFGKVTLNKLITEGAPNAEEIAKVQQQRALEEAQKQQEGHK”, the “soluble on expression in E. coli” value is on record as “not soluble”.

Take “MLKHKIINLIQEKREGSYWDFKAEYHKDKAELLHDIICLSNNLLNQEAYLILGVADNGHILGVAGDSNRKNQEELISFITGKKFAAGRHPKISLMTFEYEEKEIDVIIINPKGYVPYYLERAETDQKSKKNKTVNAGSIYTRVEDKNTPIDSTASPLDTEILWKMHFGLYPTPIKRLQNYLLTPEKWMQNSTGYFHSESPEYIVYKNEDIEEKENYFNLVSPFYAYNQINSNTLYSYYEFKYHSTVLYGCRCISLDSGIYTTPVPELGEINFNMHRDDTIYYRYFIEETMLYNIHLFMYKGDSMEEKFAMDKFLECVLVYKSDVEKELFENYILDNWDKVNQSINENNKRVFGTEHLSQLEKEDITKKVKTVKVLKDELENFRTLEHHHHHH”: the “soluble on expression in E. coli” value was “not soluble”.

For “MELTMKNPTVENLKVLTQEFFSLHWNAVLLGSDYPEWSDIYEFTGSMPNHDKQGVYAFVKNGVVTYIGVGASSNGTGRYAGHGLGKRFQSYSKVVDGRHVPTDPRLVDAGAMITIGFKPEQSYLAYALEMFLIGKMSTEHNINRPSK”, the “soluble on expression in E. coli” value is recorded as “not soluble”.

For “GSHMSQLYASLFYQRDVTEIFSDRALVSYMVEAEVALAQAQAQVGVIPQSAATVIQRAAKTAIDKIDFDALATATGLAGNIAIPFVKQLTAIVKDADEDAARYVHWGATSQDILDTACILQCRDALAIVQNQVQQCYETALSQAQTYRHQVMMGRTWLQQALPITLGHKLARWASAFKRDLDRINAIKARVLVAQLGGAVGSLASLQDQGSIVVEAYAKQLKLGQTACTWHGERDRIVEIASVLGIITGNVGKMARDWSLMMQTEIAEVFEPTAKGRGGSSTMPHKRNPVAAASVLAAANRVPALMSSIYQSMVQEHERSLGAWHAEWLSLPEIFQLTAGALERTLDVLKGMEVNAENMHQNIECTHGLIMAEAVMMALAPHMGRLNAHHVVEAACKTAVAEQKHLKDIISQVDEVKQYFNPSQLDEIFKPESYLGNIQDQIDAVLQEAKGEAK”, the “soluble on expression in E. coli” value was “soluble”.

For the sequence “MGSDKIHHHHHHMINAEPIISKMKNQKINYDKVLKKLIGQWEREAIRPKILLHSCCAPCSTYTLEFLTQYADIAIYFANSNIHPKNEYLRRAKVQEQFVEDFNRKTGANVKYIEAPYEPHKFVKMVKDKELADEKEGGLRCTACFEMRLDIVAKAAVEHGYDYFGSAITLSPKKNAQLINELGMDVQKIYDVNYLPSDFKKSKGYERSIEMCNDYNIFRQCYCGCVFAAMQQGIDFKTVNKEAKAFLEQYPD”, the “soluble on expression in E. coli” value was “not soluble”.

For “MGHHHHHHGGHMSLHSGSVEHCIKGRSRRAAPRSEHTGRMADIARKASAHWEGDLKSGNGTITTESGVLSQAQYSFKTRFENGKGTNPEELLASAHAGCFTMQLSALLAEHGHEIKALDTDATCEMVKDGPGFKINHMHLRVRAQLTGSDQADFEAHVKDAAEKCPLSRIMQGNVEVTHEAILEGEGGS”, the “soluble on expression in E. coli” value is “soluble”.

Turning to “MAHHHHHHMHADGMHTEQDEFTLSQYVQRTPLARPLGLKIGARVMLRTNLAPGLVNGSLGTVVAFRKLEMDQLPRYIVGNAQREESILQYADYLKYEQGFEVPLVPVLDFNGRQEVIPPVTHFVGGLPNTHFYSMGIIALPLSLAYAFTVHKVQGLTLVGRVHLELSRMWPCEHLLYVAMSRVRNPEQLSVSSFHPSLVRAAADCLLFDDSLPPVTQVRIAPYMVAATWRRSSERRKKTVLRKRLEAYVKRRQQRLQSEASKGDIRAEIRLLEEKMLKQRVRASAAHRKRRSTPGKLGAVAGSPMV”, the “soluble on expression in E. coli” value was “not soluble”.

For “MSGEGMTAVSEPVQLTVPQMLAQLQGTDTSLRYYAAWWLGKFGLETATAAERQAIVSALIAALADEADRTELGGYPLRRNAARALGKLGDRQAVPALIECLRCEDFYVREAAAIALGQLGDPRAIAPLQSLLEGGVAMARLVPGRPHLVQPVEAVIESLGHLGATEAIALIEPFLAHEMPRVQFAAARALFQLTGDAVYGDRLLAALNSEDVQLRRTALLDLGAMGYLPAAEAILQAGVEASFKLIALHGILGQQLRQAAPAEQTLSLFQGLDQLLLEHHHHHH”, the “soluble on expression in E. coli” value is “soluble”.

“MSPKVTKEHKDKRQAEILEAAKTVFKRKGFELTTMKDVVEESGFSRGGVYLYFSSTEEMFRRIIETGLDEGLRKLDKSAEHQSVWASISSYLDELTEGLRDVADTLAPVQFEYLVTAWRNEERRQYLEKRYDLFVERFSRLLQKGIDQGEFQPVQPLATIAKFFLNMNDGIIQNALYFDEEKADVSGLAESAKLYLKTVLQADEK”: the “soluble on expression in E. coli” value was “soluble”.

As to “MGSDKIHHHHHHMIIDAHIHCSGDEKVDDVLQALDQAQVDKAVVLAPFLSGPYSMHDSASLRSANQYLSRLIGHHTDRLIGFAVINPSLEGACQDLVSAHELGLHGLKMVPAGWYPYDDCARDVYETAARLKIPILFHSGIFIDGKSGRFCRPSFYEAIRDYPDLRVTLAHLGWPWSDEANAVGLIDLINGVPPDNSQFRFDISFGAPPVYRLEVLRKAIDVLTPDLLQFGSDVFLPCSADLIKSRIDEVLMLLERLEVDKSSRDRIMGGTAAAWLGIN”, the “soluble on expression in E. coli” value is “not soluble”.

On to “MGELIYGEVKKQTKDGFIIDLGDNAEAYLAREEMIAKEILRPKQRMNAILYSVNREGRGAQLLLSRALEHHHHHH”, for which the “soluble on expression in E. coli” value is reported as “not soluble”.

Turning to “MSLNVQGNLFRPLTLPNGLSLENRFVLSPMVTNSSTSEGFVTDDDIAYAVRRAKSAPLQITGAAYITEYGQLFEYGFSVSKDEDIPGLTKLAKAMKSKGAKAVLQLTHAGRFSSHTLARHGYVYGPSPMQLQSPYPHQVKELTHKDILRIIDEYVQATRRAIQAGFDGVEISSAQRLLIQTFFSTFSNQRKDEYGPQTLTNRCRLGLEVFKAVQKVIREEAESDFILGFRATPEETRGSQIGYSIEEFMEFLEKILAIAQVDYLAIASWGHDVFRNTIRSEGVYKGQLVNQVIFEHFGDRVPIMATGGINSASKVFEALQHAHMIGASTPLVVDPEFLQKIKAKCSDQINLRIKVSDLEGLAIPKASFKDIVPLMDYGESEGHHHHHH”, the “soluble on expression in E. coli” value is given as “soluble”.

With “MEGLINALKYLAEHEPIDNFEEIRTRNSPIELPSGLSNFEQNIFLKENLSPKLQNDDSLKTHYWIIREWGGIKSFKQSAENSQLIRQFLSELNSGKLSSGLLKISSLSKLASFIDCERFAIYDSRAIFSLNWLLFKFTNADLFFQPQGRNRELEIRNMNVLFHFSDIKPNYRKPDVSFHQYCGLLQDLAKQVYGKQAKPYHIEMLLFKIATTWICADMDQLIKFDCLRNQDFQTA”, the “soluble on expression in E. coli” value is reported as “not soluble”.

Source of the values: the DeepSol protein solubility set.
